Assay results: patent US6387681

System: NheI restriction endonuclease (R.NheI) (Neisseria mucosa heidelbergensis)
Assay: cleavage_in_vitro
Conditions: cell extract of clones #1 and #9; AvaI-linearized pBR322 cleaved into 1196 and 3165 bp fragments

With “GCTAGC (double strand) [NheI site in AvaI-linearized pBR322]” the activity (units per gram wet cells) was 1e+07.
